We go through one molecule from publication PMC2063392, “Antigenic determinants of prostate-specific antigen (PSA) and development of assays specific for different forms of PSA” (British Journal of Cancer, 1997).

The target in this test is T1, human alpha2-macroglobulin (a2M) (human, UniProt P01023 24-1474).
T1 construct: human alpha2-macroglobulin bought from Biodesign; source: bought: Biodesign, MD, USA
T1 sequence (looked up): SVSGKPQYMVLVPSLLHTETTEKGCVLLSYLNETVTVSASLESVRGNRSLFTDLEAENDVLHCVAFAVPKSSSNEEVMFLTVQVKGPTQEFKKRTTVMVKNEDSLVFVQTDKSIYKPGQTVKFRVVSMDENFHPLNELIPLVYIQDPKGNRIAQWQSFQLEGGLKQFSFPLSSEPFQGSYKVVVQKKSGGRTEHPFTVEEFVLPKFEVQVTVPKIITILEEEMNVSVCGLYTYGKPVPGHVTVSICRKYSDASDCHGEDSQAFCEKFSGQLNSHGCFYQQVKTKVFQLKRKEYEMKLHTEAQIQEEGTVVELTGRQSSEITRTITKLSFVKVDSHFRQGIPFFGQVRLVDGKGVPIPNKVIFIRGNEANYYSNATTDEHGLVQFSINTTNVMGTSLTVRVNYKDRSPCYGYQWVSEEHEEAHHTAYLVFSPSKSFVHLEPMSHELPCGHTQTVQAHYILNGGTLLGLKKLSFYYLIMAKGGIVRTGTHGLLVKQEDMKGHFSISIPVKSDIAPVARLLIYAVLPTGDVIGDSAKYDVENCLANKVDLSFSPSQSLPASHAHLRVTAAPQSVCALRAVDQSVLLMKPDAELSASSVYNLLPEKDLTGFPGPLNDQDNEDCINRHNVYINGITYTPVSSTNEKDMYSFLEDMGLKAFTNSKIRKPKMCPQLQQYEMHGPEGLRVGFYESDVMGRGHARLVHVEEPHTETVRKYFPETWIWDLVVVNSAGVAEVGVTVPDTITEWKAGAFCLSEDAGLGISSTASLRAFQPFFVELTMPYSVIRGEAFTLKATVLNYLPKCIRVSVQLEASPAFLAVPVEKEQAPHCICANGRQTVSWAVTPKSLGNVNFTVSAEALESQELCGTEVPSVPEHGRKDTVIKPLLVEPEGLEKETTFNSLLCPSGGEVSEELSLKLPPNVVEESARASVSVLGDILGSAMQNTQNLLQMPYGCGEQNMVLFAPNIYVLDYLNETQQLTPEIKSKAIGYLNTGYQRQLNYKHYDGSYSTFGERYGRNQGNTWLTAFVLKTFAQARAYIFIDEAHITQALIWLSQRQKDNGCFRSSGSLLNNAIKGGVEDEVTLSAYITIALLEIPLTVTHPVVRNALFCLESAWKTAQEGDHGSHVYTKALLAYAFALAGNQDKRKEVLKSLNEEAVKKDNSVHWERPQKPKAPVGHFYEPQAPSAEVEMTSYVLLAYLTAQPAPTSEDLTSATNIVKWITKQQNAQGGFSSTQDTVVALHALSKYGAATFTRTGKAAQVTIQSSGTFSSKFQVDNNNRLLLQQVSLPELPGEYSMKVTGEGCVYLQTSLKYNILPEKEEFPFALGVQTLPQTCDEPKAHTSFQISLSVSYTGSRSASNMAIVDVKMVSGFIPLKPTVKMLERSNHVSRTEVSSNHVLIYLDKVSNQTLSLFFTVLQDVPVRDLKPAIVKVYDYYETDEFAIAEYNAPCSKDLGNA
Briefly: loss of PSA immunoreactivity after incubation; human a2M incubated with twofold molar excess of PSA for 4 h at 37 C, used without further purification; PSA concentration determined before and after incubation. To be noted: both partners purified.

B1: prostate-specific antigen (PSA) (enzyme)
chain: not shown
notes: human prostate-specific antigen (PSA), 32 to 33-kDa single-chain glycoprotein from seminal plasma; the preparation also holds 'nicked' (internally cleaved) forms; also called F-PSA; free PSA; source: purified from pooled seminal plasma from healthy volunteers (ion-exchange chromatography and gel chromatography); also used unpurified in seminal plasma
With B1, the binding result is listed as “binds”.
